Experimental data: patent publication US20220153790A1 (TECHNISCHE UNIVERSIT T M NCHEN, published 2022)
Substitutions are numbered along the chain they refer to.

Experiments:
[1] = target: T1, fully glycosylated, monobiotinylated extracellular domain of human CD98hc produced in HEK 293E cells (human, UniProt P08195 111-529, N-linked glycosylation at Asn264, 280, 323 and 405 (UniProt P08195-2); single biotin on the N-terminal BAP); test: not given
T1 construct: also called hCD98hcEDg; CD98hcEDg; not shown: N-terminal His6 tag and biotin acceptor peptide (BAP) from pDSG-BM-His6-BAP-hCD98hcEDg
T1 sequence: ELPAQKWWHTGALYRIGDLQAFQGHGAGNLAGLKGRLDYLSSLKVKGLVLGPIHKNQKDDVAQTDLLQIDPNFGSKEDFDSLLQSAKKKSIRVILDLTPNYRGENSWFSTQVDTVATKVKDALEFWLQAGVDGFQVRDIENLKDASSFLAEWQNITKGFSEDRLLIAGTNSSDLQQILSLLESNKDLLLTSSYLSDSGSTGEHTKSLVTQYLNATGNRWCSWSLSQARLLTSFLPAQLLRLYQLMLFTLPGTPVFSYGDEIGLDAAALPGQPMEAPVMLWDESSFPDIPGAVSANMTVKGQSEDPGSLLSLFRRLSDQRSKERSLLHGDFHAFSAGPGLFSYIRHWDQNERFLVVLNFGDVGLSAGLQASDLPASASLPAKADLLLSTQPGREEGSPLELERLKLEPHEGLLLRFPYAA

[2] = target: T2, unglycosylated, monobiotinylated extracellular domain of human CD98hc produced in E. coli (human, UniProt P08195 111-529, single biotin on the N-terminal biotin acceptor peptide (BAP)); test: SPR, complex dissociation half-life
T2 construct: also called hCD98hcED; CD98hcED; not shown: N-terminal biotin acceptor peptide (BAP) from pASK-IBA5(+)-BAP-hCD98hcED
T2 sequence: T1 sequence
Method: (§1) Real time surface plasmon resonance (SPR) spectroscopy was performed on a BIAcore 2000 system (BIAcore, Uppsala, Sweden) at 25° C. using HBS-T (20 mM Hepes/NaOH pH 7.5, 150 mM NaCl, 0.005% v/v Tween20) as running buffer. The purified biotinylated m/hCD98hcED (3 μg/ml protein solution in HBS-T produced in HEK cells or E. coli) was immobilized (ARU-225) via streptavidin on a CAP sensorchip of the Biotin CAPture kit (GE Healthcare). SPR single cycle kinetic experiments were performed using five consecutive injections of a 1:2 dilution series of the purified lipocalin variant at a flow rate of 25 μl/min, with 288 s contact time and 3500 s dissociation time after the fifth injection. For multi cycle kinetic experiments, eight samples from a consecutive 1:2 dilution series of the purified lipocalin variant were measured. Rate constants of association and dissociation were calculated from reference-corrected sensorgrams by fitting to a global 1:1 Langmuir binding model using BIAevaluation software (BIAcore). The equilibrium dissociation constants (KD value) were calculated as the quotient koff/kₒₙ. To test competitive binding of the lipocalin variants P3D11, P3A12 and P1E4 to glycosylated hCD98hcED, 100 nM of P3D11 was first injected and followed by a subsequent injection of either 100 nM P3A12 or 100 nM P1E4. HBS-T injections served as negative control.

[3] = target: T1, fully glycosylated, monobiotinylated …; test: SPR, complex dissociation half-life
Method: as §1

[4] = target: T1, fully glycosylated, monobiotinylated …; test: SPR, biotinylated hCD98hcEDg captured on CAP chip
Method: as §1

[5] = target: T2, unglycosylated, monobiotinylated …; test: SPR (BIAcore 2000), biotinylated hCD98hcED captured on CAP chip, single cycle kinetics
Method: as §1

B1: SEQ ID NO 5 (designed binder)
chain: QDSTSDLIPAPPLSKVPLQQNFQDNQFHGKWYVVGRAGNTGLREDKDPGKMFATIYELKEDKSYNVTYVWFGQKKCMYSIVTFVPGSQPGEFTLGNIKSAPGRTSWLVRVVSTNYNQYAMVFFKSVTQNREGFAITLYGRTKELTSELKENFIRFSKSLGLPENHIVFPVPIDQCIDG
With B1 the Kd [1] was no more than 200 nM.

B2: SEQ ID NO 8 (designed binder)
chain: B1 chain with V126E, N151Y
B2 was tested, and the Kd [1] was no more than 200 nM.

B3: lipocalin variant P3D11 (designed binder)
chain: B1 chain with V81G, Y118H
notes: produced soluble in E. coli JM83, monomeric; also called Anticalin P3D11; not shown: C-terminal His6-tag (plasmid pNGAL118)
For B3, the Kd [1] was no more than 200 nM, the “T½” value [2] was 359 min and the “T1/2” value [3] was 230 min. The Kd [4] was 0.17 nM, the koff [4] was 5e-05 s⁻¹ and the kon [4] was 300000 M⁻¹ s⁻¹. It also gave a Kd [5] of 0.15 nM, a koff [5] of 3.2e-05 s⁻¹ and a kon [5] of 220000 M⁻¹ s⁻¹.

B4: SEQ ID NO 11 (designed binder)
chain: B1 chain with F71S, K74T, Y118H
B4 was tested, and the Kd [1] was no more than 200 nM.

B5: SEQ ID NO 10 (designed binder)
chain: B1 chain with F71S, T82S, F92Y, T93N, Y118H
B5 gave a Kd [1] of no more than 200 nM.

B6: SEQ ID NO 6 (designed binder)
chain: B1 chain with Y64F, Y118H
B6 was tested, and the Kd [1] was no more than 200 nM.

B7: SEQ ID NO 9 (designed binder)
chain: B1 chain with Y118H, G132E
For B7, the Kd [1] was no more than 200 nM.

B8: SEQ ID NO 7 (designed binder)
chain: B1 chain with Y78N
B8 showed a Kd [1] of no more than 200 nM.

B9: lipocalin variant P3A12 (designed binder)
chain: QDSTSDLIPAPPLSKVPLQQNFQDNQFHGKWYVVGRAGNLGLREDKDPAKMFATIYELKEDKSYNVTYVWFDLKKCKYSIHTFVPGSQPGEFTLGKIKSGPGHTSWLVRVVSTNYNQHAMVFFKWVGQNRENFAITLYGRTKELTSELKENFIRFSKSLGLPENHIVFPVPIDQCIDG
notes: produced soluble in E. coli JM83, monomeric; also called Anticalin P3A12; not shown: C-terminal His6-tag (plasmid pNGAL118)
In the case of B9, the Kd [1] is reported as no more than 200 nM, the “T½” value [2] is reported as 67.7 min and the “T1/2” value [3] is reported as 29 min. The Kd [4] was 1.9 nM, the koff [4] was 0.0004 s⁻¹ and the kon [4] was 220000 M⁻¹ s⁻¹. For the same binder, the Kd [5] was 2.8 nM, the koff [5] was 0.00017 s⁻¹ and the kon [5] was 62000 M⁻¹ s⁻¹.
